Reference: US12552837B2, “Bicyclic peptide ligands with detectable moieties and uses thereof” (BicycleRD Limited, priority 2017, dated 2026)
*1 amine or outer side, *2 acyl side, *3 side chain or, on linkers, in order; H or OH if unused. Where a SMILES comes first, the peptide text is derived from it. Bridges are numbered along the chain shown (N, C = ends). [ ]: non-standard residue; d: D form. The star is where a group is joined. DOTA = O=C(O)CN1CCN(CC(=O)O)CCN(CC(=O)*)CCN(CC(=O)O)CC1; 1Nal = N[C@@H](Cc1cccc2ccccc12)C(=O)O; TBMB = c1c(C[*:1])cc(C[*:3])cc1C[*:2]; Tle = CC(C)(C)[C@H](N)C(=O)O

Test system: xenograft tumor
Test: μPET imaging with 68Ga-labelled Bicycle peptides in xenograft mice
Assay type: in vivo
Settings: 150 pmoles
Protocol: General method for μPET imaging: the mice were anaesthetized (2% sevoflurane, Abbott), placed into the small animal PET scanner (Inveon PET, Siemens) and injected with 68Ga-labeled Bicycle peptides. A 20 min transmission scan, a 50 min dynamic scan and a static scan from 100 to 120 min p.i. were performed. Images were reconstructed iteratively using the space alternating generalized expectation maximization method (SAGE, 16 subsets, 4 iterations) applying median root prior correction and were converted to standardized uptake value (SUV) images. Quantitation was done using a ROI (region of interest) technique and expressed as SUVmean.
General method for radiolabeling with Ga-68: ^68Ga (half-life 68 min; β^+ 89%; Eβ+max. 1.9 MeV) was obtained from a in house ^68Ge/^68Ga generator based on pyrogallol resin support. 1 GBq ^68Ga was eluted using 5.5 M HCl. The activity was trapped on a small anion-exchanger cartridge (AG1X8, Biorad, Richmond, CA, USA) as [^68Ga]GaCl4^−. The radiogallium was eluted from the cartridge in a final volume of 300 μL ultrapure water (Merck, Darmstadt, Germany) as [^68Ga]GaCl3.
1 nmol Bicycle peptide in 1 μL DMSO was added to a mixture of 50 μL 0.05 M HEPES, 0.1% Tween-20, and 80 μL [^68Ga]Ga^3+ eluate (˜200 MBq). The pH of the labelling solution was adjusted to 4.2 using 30% NaOH. The reaction mixture was incubated at 98° C. for 10 minutes. The radiochemical yield (RCY) was determined using reversed-phase high performance liquid chromatography (RP-HPLC; Chromolith RP-18e, 100×4.6 mm; Merck, Darmstadt, Germany). The analytical HPLC run was performed using a linear A-B gradient (0% B to 100% B in 6 min) at a flow rate of 4 mL/min. Solvent A consisted of 0.1% aqueous TFA and solvent B was 0.1% TFA in CH3CN.
For μPET imaging, the labelling reaction mixture was diluted in injection buffer (0.25 M Na-Acetate 0.05% Tween-20 pH 7) by a factor of 6 to obtain 150 pmoles in 100 μL injection buffer. The anaesthetized mouse (2% sevoflurane, Abbott) was injected with 100 μL of ^68Ga-labelled I-23 (˜25 MBq) and placed in a small animal PET scanner (Inveon PET, Siemens). The imaging was performed 60 min post-injection and included a 15 min transmission scan before injection and a 60 min emission scan post-injection. Scans from μPET imaging were reconstructed iteratively using the space alternating generalized expectation maximization method (SAGE, 16 subsets, 4 iterations) applying median root prior correction and were converted to standardized uptake value (SUV) images. Quantitation was accomplished using an ROI (region of interest) technique and expressed as SUVmean.
The radiolabelling with Ga-68 was done as described before. […] Quantitation was accomplished using an ROI (region of interest) technique and expressed as SUVmean. […]

Structure (SMILES): C[C@H](NC(=O)CN1CCN(CC(=O)O)CCN(CC(=O)O)CCN(CC(=O)O)CC1)C(=O)N[C@H]1CSCc2cc3cc(c2)CSC[C@H](NC(=O)[C@@H](C)NC(=O)[C@H](Cc2cccc4ccccc24)NC(=O)[C@H](CCC(=O)O)NC(=O)[C@H](CC(N)=O)NC(=O)[C@@H](C)NC1=O)C(=O)N[C@@H](CCC(=O)O)C(=O)N[C@@H](CC(=O)O)C(=O)N[C@@H](Cc1ccccc1)C(=O)N[C@@H](Cc1ccc(O)cc1)C(=O)N[C@@H](CC(=O)O)C(=O)N[C@@H](C(C)(C)C)C(=O)N[C@H](C(N)=O)CSC3 [I-23] ({DOTA}-AC[dA]NE[1Nal][dA]CEDFYD[Tle]C-NH2; linker 2-8-15 via TBMB)
- time post injection from which high imaging contrasts are seen: 20 min
- tumor uptake in μPET images: MMP-14-selective tumor uptake
